Activity data for two sequences are collected here from US20110251266.

In this data set the target is beta-NGF (nerve growth factor) (Homo sapiens) (UniProt P01138). Put plainly: cell_activity. Conditions: as SEQ30(6); 100 nM aptamer; parent 92.7%.
beta-NGF (nerve growth factor) (Homo sapiens), sequence (P01138 122-241): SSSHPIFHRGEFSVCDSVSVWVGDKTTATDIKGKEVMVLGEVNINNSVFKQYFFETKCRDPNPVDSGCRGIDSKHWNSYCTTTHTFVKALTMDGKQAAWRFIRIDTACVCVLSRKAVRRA

As to “GGGAUAAAAAUAGAGUUUGAUAAACACCUGUAUUAAAACCC [SEQ30(6) G20A]”, the activity came to 96.1 % inhibition. As for “GGGAUAAAAAUAGAGUUUGAUAAACACCUGUAUUAAAACCC [SEQ30(6) G23A]”, the figure is 91.2 % inhibition.
